The experiment has as its target T1, SARS-CoV-2 spike protein receptor binding domain (RBD) (SARS-CoV-2, wild type (Wuhan-Hu-1 …, UniProt P0DTC2)).
T1 construct: also called SARS-CoV-2 RBD
As to the kind of experiment: SPR. As to conditions: both partners purified.

The record followed here is PMC9518701, “Preclinical characterization of amubarvimab and romlusevimab, a pair of non-competing neutralizing monoclonal antibody cocktail, against SARS-CoV-2” (Frontiers in Immunology, 2022).

Where a chain is given by its changes, count along the chain named. In names and notes the source's numbering stands.

One may read the Kd as a measure of binding affinity in units of concentration.

B1: romlusevimab (BRII-198) (antibody, V domains shown)
VH: QVQLVQSGSELKKPGASVKVSCKASGYTFTTYVMNWVRQAPGQGLEWMGWINTNTGNPTYAQGFTGRFVFSLDTSVSTASLQISSLKAEDTAVYYCSSEITTLGGMDVWGQGTTVTVSS
VL: SYVLTQPPSVSVAPGKTARITCGGNNIGSKSVHWYQQKPGQAPVLVIYYDSDRPSGIPERFSGSNSGNTATLTISGVEAGDEADYYCQVWDSISDHRVFGGGTKLTVL
In the case of B1, the Kd came out at 0.56 nM.

B2: P2B-1G5 (precursor of romlusevimab) (antibody, V domains shown)
VH: B1 VH with S98C
VL: B1 VL
Consider B2, for which the binding result was “binds”.
